Measured values from the supplement of paper PMC12338614.
± gives the uncertainty stated by the source.

B1: library; numbered along this chain (parent)
chain: MEVVDPQQLGMFTEGELMSVGMDTFIHRIDSTEVIYQPRRKRAKLIGKYLMGDLLGEGSYGKVKEVLDSETLCRRAVKILKKKKLRRIPNGEANVKKEIQLLRRLRHKNVIQLVDVLYNEEKQKMYMVMEYCVCGMQEMLDSVPEKRFPVCQAHGYFCQLIDGLEYLHSQGIVHKDIKPGNLLLTTGGTLKISDLGVAEALHPFAADDTCRTSQGSPAFQPPEIANGLDTFSGFKVDIWSAGVTLYNITTGLYPFEGDNIYKLFENIGKGSYAIPGDCGPPLSDLLKGMLEYEPAKRFSIRQIRQHSWFRKKHPPAEAPVPIPPSPDTKDRWRSMTVVPYLEDLHGADEDEDLFDIEDDIIYTQDFTVPGQVPEEEASHNGQRRGLPKAVCMNGTEAAQLSTKSRAEGRAPNPARKACSASSKIRRLSACKQQ

Variants of: B1
Assay: STK11 functional score (HeLa growth suppression), rescaled enrichment; synonymous median = 1, nonsense median = 0 (normalised score)
Details: with HeLa; variant type: missense
Summary of the method: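 Codon-randomised (POPCode) libraries of codon-optimised STK11 were integrated by Bxb1 at an AAVS1 landing pad in HeLa, in three regions each transfected three times. Integrants (BFP-negative, mCherry-positive) were FACS-sorted 4–5 days after electroporation and grown about two weeks; tiled gDNA amplicons were sequenced on NextSeq (~2 million reads per tile). The functional score is the wild-type-corrected post/pre-selection log ratio, rescaled to synonymous and nonsense medians, merged over codons and replicate transfections, with bootstrapped error.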

Question: With MEVVDPQQLGMFTEGELMSVGMDTFIHRIDSTEVIYQPRRKRAKLIGKYLMGDLLGEGSYGKVKEVLDSETLCRRAVKILKKKKLRRIPNGEANVKKEIQLLRRLRHKNVIQLVDVLYNEEKQKMYMVMEYCVCGMQEMLDSVPEKRFPVCQAHGYFCQLIDGLEYLHSQGIVHKDIKPGNLLLTTGGTLKISDLGVAFALHPFAADDTCRTSQGSPAFQPPEIANGLDTFSGFKVDIWSAGVTLYNITTGLYPFEGDNIYKLFENIGKGSYAIPGDCGPPLSDLLKGMLEYEPAKRFSIRQIRQHSWFRKKHPPAEAPVPIPPSPDTKDRWRSMTVVPYLEDLHGADEDEDLFDIEDDIIYTQDFTVPGQVPEEEASHNGQRRGLPKAVCMNGTEAAQLSTKSRAEGRAPNPARKACSASSKIRRLSACKQQ [E199F] as the variant, how does the STK11 functional score read?
Answer: 1.37 ± 0.25

Question: Which STK11 functional score does the source give for MEVVDPQQLGMFTEGELMSVGMDTFIHRIDSTEVIYQPRRKRAKLIGKYLMGDLLGEGSYGKVKEVLDSETLCRRAVKILKKKKLRRIPNGEANVKKEIQLLRRLRHKNVIQLVDVLYNEEKQKMYMVMEYCVCGMQEMLDSVPEKRFPVCQAHGYFCQLIDGLEYLHSQGIVHKDIKPGNLLLTTGGTLKISDLGVAEALHPFAADDTCRTSQGSPAFQPPEIANGLDTFSGFKVDIWSAGVTLYNITTGLYPFEGDNIYKLFENIGKGSYAIPGDCGPPLSDLLKGMLEYEPAKRFSIRQIRQHSWFRKKHPPAEAPVPIPPSPDTKDRWRSMTVVPYLEDLHGADEDEDLFDIEDDIIYTQDFTVPGQVPEEEASHNGQRRGLPKAVCMNGTEAAQLSTKSRTEGRAPNPARKACSASSKIRRLSACKQQ [A406T] here?
Answer: 1.42 ± 0.35

Question: MEVVDPQQLGMFTEGELMSVGMDTFIHRIDSTEVIYQPRRKRAKLIGKYLMGDLLGEGSYGKVKEVLDSETLCRRAVKILKKKKLRRIPNGEANVKKEIQLLRRLRHKNVIQLVDVLYNEEKQKMYMVMEYCVCGMQEMLDSVPEKRFPVCQAHGYFCQLIDGLEYLHSQGIVHKDIKPGNLLLTTGGTLKISDLGVAEALHPFAADDTCRTSQGSPAFQPPEIANGLDTFSGFKVDIWSAGVTLYNITTGLYPFEGDNIYKLFENIGKGSYAIPGDCGPPLSDLLKGMLEYEPAKRFSIRQIRQHSWFVKKHPPAEAPVPIPPSPDTKDRWRSMTVVPYLEDLHGADEDEDLFDIEDDIIYTQDFTVPGQVPEEEASHNGQRRGLPKAVCMNGTEAAQLSTKSRAEGRAPNPARKACSASSKIRRLSACKQQ [R310V] was tested. Which STK11 functional score did it give?
Answer: 1.43 ± 0.15

Question: Which STK11 functional score does the source give for MEVVDPQQLGMFTEGELMSVGMDTFIHRIDSTEVIYQPRRKRAKLIGKYLMGDLLGEGSYGKVKEVLDSETLCRRAVKILKKKKLRRIPNGEANVKKEIQLLRRLRHKNVIQLVDVLYNEEKHKMYMVMEYCVCGMQEMLDSVPEKRFPVCQAHGYFCQLIDGLEYLHSQGIVHKDIKPGNLLLTTGGTLKISDLGVAEALHPFAADDTCRTSQGSPAFQPPEIANGLDTFSGFKVDIWSAGVTLYNITTGLYPFEGDNIYKLFENIGKGSYAIPGDCGPPLSDLLKGMLEYEPAKRFSIRQIRQHSWFRKKHPPAEAPVPIPPSPDTKDRWRSMTVVPYLEDLHGADEDEDLFDIEDDIIYTQDFTVPGQVPEEEASHNGQRRGLPKAVCMNGTEAAQLSTKSRAEGRAPNPARKACSASSKIRRLSACKQQ [Q123H] here?
Answer: 1.11 ± 0.38

Question: For MEVVDPQQLGMFTLGELMSVGMDTFIHRIDSTEVIYQPRRKRAKLIGKYLMGDLLGEGSYGKVKEVLDSETLCRRAVKILKKKKLRRIPNGEANVKKEIQLLRRLRHKNVIQLVDVLYNEEKQKMYMVMEYCVCGMQEMLDSVPEKRFPVCQAHGYFCQLIDGLEYLHSQGIVHKDIKPGNLLLTTGGTLKISDLGVAEALHPFAADDTCRTSQGSPAFQPPEIANGLDTFSGFKVDIWSAGVTLYNITTGLYPFEGDNIYKLFENIGKGSYAIPGDCGPPLSDLLKGMLEYEPAKRFSIRQIRQHSWFRKKHPPAEAPVPIPPSPDTKDRWRSMTVVPYLEDLHGADEDEDLFDIEDDIIYTQDFTVPGQVPEEEASHNGQRRGLPKAVCMNGTEAAQLSTKSRAEGRAPNPARKACSASSKIRRLSACKQQ [E14L], which STK11 functional score is on record?
Answer: 1 ± 0.14

Question: For MEVVDPQQLGMFTEGELMSVGMDTFIHRIDSTEVIYQPRRKRAKLIGKYLMGDLLGEGSYGKVKEVLDSETLCRRAVKILKKKKLRRIPNGEANVKKEIQLLRRLRHKNVIQLVDVLYNEEKQKMYMVMEYCVCGMQEMLDSVPEKRFPVCQAHGYFCQLIDGLEYLHSQGIVHKDIKPGNLLLTTGGTLKISDLGVAEALHPFAADDTCRTSQGSPAFQPPEIANGLDTFSGFKVDIWSAGVTLYNITTGLYPFEGDNIYKLFENIGKGSYAIPGDCGPPLSDLLKGMLEYEPAKRFSIRQIRQHSWFRKKHPPAEAPVPIPPSPDTKDRWRSMTVVPYLEDLHGADEDEDLFDIEDDIIYTQYFTVPGQVPEEEASHNGQRRGLPKAVCMNGTEAAQLSTKSRAEGRAPNPARKACSASSKIRRLSACKQQ [D365Y], which STK11 functional score is on record?
Answer: 1.38 ± 0.14

Question: Which STK11 functional score does the source give for MEVVDPQQLGMFTEGELMSVGMDTFIHRIDSTEVIYQPRRKRAKLIGKYLMGDLLGEGSYGKVKEVLDSETLCRRAVKILKKKKLRRIPNGEANVKKEIQLLRRLRHKNVIQLVDVLYNEEKQKMYMVMEYCVCGMQEMLDSVPEKRFPVCQAHGYFCQLIDGLEYLHSQGIVHKDIKPGNLLLTTGGTLKISDLGVAEALHPFAADDTCRTSQGSPAFQPPEIANGLDTFSGFKVDIWSAGVTLYNITTGLYPFEGDNIYKLFENIGKGSYAIPGDCGPPLSDLLKGMLEYEPAKRFSIRQIRQHSWFRKKHPPAEAPVPIPPSPDTKDRWRSMTVVPYLEDLHGADEDEDLFDIEDDIIYTQDFTVPGQVPEEEASHNGQRRGLPKAVCMNGTEAAQLSTKSRAEGRAPNPARVACSASSKIRRLSACKQQ [K416V] here?
Answer: 1.39 ± 0.36
